Test results taken from article PMC5764952 (2018).

Biological target: Untagged murine saposin A (SapA) (mouse)
Assay: crystal structure; complex formed at pH 5.0 with the detergent LDAO, SapA:GALC molar ratio 2:1; crystals at 20 °C from 75 mM sodium citrate pH 5.6, 11% PEG 3350; 3.6 Å

stoichiometry N: 2
Substance: Untagged murine saposin A (SapA) (natural protein)
